Biological target: full length human CNTFR (hCNTFR, amino acids 1-372, UniProtKB/Swiss-Prot Accession #P26992) (human) (UniProt P26992)
Test: cell-based or functional assay

full length human CNTFR, sequence (P26992 23-342 limits assumed, one chain of several): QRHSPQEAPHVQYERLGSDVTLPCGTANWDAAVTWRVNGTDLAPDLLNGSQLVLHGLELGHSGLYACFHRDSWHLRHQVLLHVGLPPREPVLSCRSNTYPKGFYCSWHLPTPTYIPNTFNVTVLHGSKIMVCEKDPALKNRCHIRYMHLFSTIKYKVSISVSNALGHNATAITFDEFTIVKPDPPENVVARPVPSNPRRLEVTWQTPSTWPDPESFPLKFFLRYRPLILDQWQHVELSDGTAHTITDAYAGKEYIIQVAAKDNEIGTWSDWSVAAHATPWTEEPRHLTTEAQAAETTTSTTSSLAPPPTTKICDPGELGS

| Substance | Ligand EC50 [M], activation of IMR-32/STAT3-luc cells (luciferase) |
| --- | --- |
| human Ciliary Neurotrophic Factor (hCNTF, R&D Systems, 257-NT) (from UniProt P26441 2-200) (ligand) | 2.26e-12 M |
| human Cytokine-like Factor 1/human Cardiotrophin-like cytokine complex (hCLF-1/CLC, R&D Systems 1151-CL) (from UniProt O75462 38-422; Q9UBD9 28-225) (ligand) | 9.63e-11 M |

Reference: patent publication US20260201045A1
